Reference: PMC10814857, “Functional Classification and Interaction Selectivity Landscape of the Human SH3 Domain Superfamily” (Cells, 2024)
Values belong to the binder of their own block, whether it stands above or below them.

Experiments:
[1] = biological target: P7, fluorescein-labelled proline-rich peptide from the SOS1 proline-rich domain (human); assay: fluorescence polarisation; 0.2 µM fluorescein-labelled peptide, SH3 domain titrated 0 to 200 µM; 30 mM Tris/HCl pH 7.5, 5 mM MgCl2, 3 mM DTT, 25 °C; quadratic ligand binding equation
[2] = biological target: SOS1 P7 (Homo sapiens), Q07889; assay: fluorescence polarization

Kd [1]: 0.2 µM
B1: ARHGAP12 SH3 domain, GST cleaved (domain or fragment)
chain: PGQVYIEVEYDYEYEAKDRKIVIKQGERYILVKKTNDDWWQVKPDENSKAFYVPAQYVKEVTR

Kd [2]: < 0.5 µM
B2: ARHGAP12 SH3, Q8IWW6 (protein)
chain: KIIPGQVYIEVEYDYEYEAKDRKIVIKQGERYILVKKTNDDWWQVKPDENSKAFYVPAQYVKEVTRKAL
